Measured values from patent US20200339694A1 (published 2020).
Where two headings read alike, the source gives them in different places.

Experiments:
[1] = target: T1, human IL6R (R and D systems cat #227-SR/CF) (human, UniProt P08887 20-358); assay: ELISA; apparent, printed beside curve
T1 chain: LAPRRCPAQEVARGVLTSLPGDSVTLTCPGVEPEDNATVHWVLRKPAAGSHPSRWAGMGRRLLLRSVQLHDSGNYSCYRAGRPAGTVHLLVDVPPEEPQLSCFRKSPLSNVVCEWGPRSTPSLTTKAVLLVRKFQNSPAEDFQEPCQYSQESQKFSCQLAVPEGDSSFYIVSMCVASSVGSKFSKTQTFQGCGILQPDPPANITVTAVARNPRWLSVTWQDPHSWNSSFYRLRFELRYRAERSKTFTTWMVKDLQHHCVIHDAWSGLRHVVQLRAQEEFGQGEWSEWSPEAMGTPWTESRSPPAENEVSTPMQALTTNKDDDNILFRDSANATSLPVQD

[2] = target: T1, human IL6R (R and D systems cat …); assay: ELISA; apparent, printed beside curve

B1: Av1 antibody (antibody, V domains shown)
VH: QVQLQESGPGLVRPSQTLSLTCTVSGYSITSDHAWSWVRQPPGRGLEWIGYISYSGITTYNPSLKSRVTISRDNSKNTLYLQMNSLRAEDTAVYYCARSLARTTAMDYWGQGSLVTVSS
VL: DIQMTQSPSSLSASVGDRVTITCRASQDISSYLNWYQQKPGKAPKLLIYYTSRLHSGVPSRFSGSGSGTDFTFTISSLQPEDIATYYCQQGNTLPYTFGQGTKVEIKR
With B1 the Kd [1] was 2.2 nM.

B2: AV1-based activatable anti-IL6R antibody with Generation 1 mask Peptide 1 and substrate MMP/BV728 (antibody, V domains shown)
VH: B1 VH
VL: YRSCNWNYVSIFLDCDIQMTQSPSSLSASVGDRVTITCRASQDISSYLNWYQQKPGKAPKLLIYYTSRLHSGVPSRFSGSGSGTDFTFTISSLQPEDIATYYCQQGNTLPYTFGQGTKVEIKR
In the case of B2, the Kd [2] is reported as 19.2 nM.
